What was measured:
[1] = molecular target: human CD3 (on human Pan-T cells or donor PBMC) (human) (UniProt P07766); test: cell-based or functional assay
[2] = molecular target: human CD3 (on the surface of Jurkat wild-type cells and of human Pan T cells) (human) (UniProt P07766); test: flow cytometry, isotype control antibody on Jurkat WT cells
[3] = molecular target: human CD3 (on the surface of Jurkat wild-type cells and of human Pan T cells) (human) (UniProt P07766); test: flow cytometry, isotype control antibody on human Pan T cells
RT3-T3.5 (TCR-KO) cells [4] = test: flow cytometry, isotype control antibody on RT3-T3.5 (TCR-KO) negative control cells
[5] = molecular target: human CD3 (TCR/CD3 complex on the cell surface) (human) (UniProt P07766); test: flow cytometry, gMFI Jurkat WT over Jurkat TCRb KO, 10 ug/mL
[6] = molecular target: human CD3 (on the surface of Jurkat wild-type cells and of human Pan T cells) (human) (UniProt P07766); test: flow cytometry, control antibody on human Pan T cells
CD33 on KILR-HL60 cells [7] = molecular target: CD33 on KILR-HL60 cells (UniProt P20138); test: flow cytometry on KILR-HL60 (CD33 expressing) cells, antibody at 1 ug/ml
[8] = molecular target: Jurkat TCRb knockout cells; test: flow cytometry, Jurkat KO (TCRb knockout) cells, negative control, 1 ug/mL
[9] = molecular target: human CD3 (TCR/CD3 complex on the cell surface) (human) (UniProt P07766); test: flow cytometry, Jurkat WT cells, 1 ug/mL
[10] = molecular target: CD3 on Jurkat wild-type cells (UniProt P07766); test: flow cytometry on Jurkat WT cells, antibody at 1 ug/ml
[11] = molecular target: Jurkat TCRb knockout cells; test: flow cytometry on Jurkat KO (TCRb knockout) cells, negative control, antibody at 1 ug/ml
[12] = molecular target: CD3 on Jurkat wild-type cells (UniProt P07766); test: flow cytometry on Jurkat WT cells, antibody at 10 ug/ml
[13] = molecular target: human CD3 (TCR/CD3 complex on the cell surface) (human) (UniProt P07766); test: flow cytometry, gMFI Jurkat WT over Jurkat TCRb KO, 1 ug/mL
[14] = molecular target: human CD3 (on the surface of Jurkat wild-type cells and of human Pan T cells) (human) (UniProt P07766); test: flow cytometry, control antibody on Jurkat WT cells
[15] = molecular target: human CD3 (TCR/CD3 complex on the cell surface) (human) (UniProt P07766); test: flow cytometry, Pan-T cells, 1 ug/mL
[16] = molecular target: Jurkat TCRb knockout cells; test: flow cytometry, Jurkat KO (TCRb knockout) cells, negative control, 10 ug/mL
[17] = molecular target: human CD3 (TCR/CD3 complex on the cell surface) (human) (UniProt P07766); test: flow cytometry, Jurkat WT cells, 10 ug/mL
RT3-T3.5 (TCR-KO) cells [18] = test: flow cytometry, control antibody on RT3-T3.5 (TCR-KO) negative control cells
[19] = molecular target: human CD3 (TCR/CD3 complex on the cell surface) (human) (UniProt P07766); test: flow cytometry, Pan-T cells, 10 ug/mL
[20] = molecular target: Jurkat TCRb knockout cells; test: flow cytometry on Jurkat KO (TCRb knockout) cells, negative control, antibody at 10 ug/ml
CD33 on KILR-HL60 cells [21] = molecular target: CD33 on KILR-HL60 cells (UniProt P20138); test: flow cytometry on KILR-HL60 (CD33 expressing) cells, antibody at 10 ug/ml

Sequence of Gemtuzumab (antibody) (HC): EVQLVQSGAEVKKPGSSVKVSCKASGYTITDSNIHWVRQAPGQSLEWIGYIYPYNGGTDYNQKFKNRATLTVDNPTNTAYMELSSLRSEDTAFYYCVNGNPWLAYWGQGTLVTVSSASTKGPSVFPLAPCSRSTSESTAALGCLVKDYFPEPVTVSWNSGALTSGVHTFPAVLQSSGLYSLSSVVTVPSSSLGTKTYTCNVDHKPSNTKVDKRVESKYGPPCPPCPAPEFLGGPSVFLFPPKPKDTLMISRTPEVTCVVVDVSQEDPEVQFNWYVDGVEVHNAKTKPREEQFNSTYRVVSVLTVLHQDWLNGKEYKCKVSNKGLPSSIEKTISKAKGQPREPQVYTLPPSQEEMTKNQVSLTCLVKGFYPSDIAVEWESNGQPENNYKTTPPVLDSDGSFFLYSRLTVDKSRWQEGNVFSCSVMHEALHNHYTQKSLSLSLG
Sequence of Gemtuzumab (antibody) (LC): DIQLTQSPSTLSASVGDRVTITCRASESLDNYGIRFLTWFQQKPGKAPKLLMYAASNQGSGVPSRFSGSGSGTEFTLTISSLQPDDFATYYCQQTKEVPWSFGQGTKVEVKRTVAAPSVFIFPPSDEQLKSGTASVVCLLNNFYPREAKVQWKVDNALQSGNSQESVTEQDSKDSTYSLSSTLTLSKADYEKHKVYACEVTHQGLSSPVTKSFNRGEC
Sequence of CD33 on KILR-HL60 cells (P20138 18-364 limits assumed): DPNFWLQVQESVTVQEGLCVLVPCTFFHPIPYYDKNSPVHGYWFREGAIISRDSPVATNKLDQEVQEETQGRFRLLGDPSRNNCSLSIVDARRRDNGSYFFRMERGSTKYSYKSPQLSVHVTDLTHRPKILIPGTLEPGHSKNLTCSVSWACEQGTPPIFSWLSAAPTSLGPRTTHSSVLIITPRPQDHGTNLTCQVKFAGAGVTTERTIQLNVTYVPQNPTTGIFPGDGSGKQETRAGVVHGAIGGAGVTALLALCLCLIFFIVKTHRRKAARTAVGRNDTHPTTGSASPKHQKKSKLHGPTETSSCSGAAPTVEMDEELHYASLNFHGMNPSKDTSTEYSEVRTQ
Sequence of human CD3 (on human Pan-T cells or donor PBMC) (human) (P07766 23-207, chain 1 of 4): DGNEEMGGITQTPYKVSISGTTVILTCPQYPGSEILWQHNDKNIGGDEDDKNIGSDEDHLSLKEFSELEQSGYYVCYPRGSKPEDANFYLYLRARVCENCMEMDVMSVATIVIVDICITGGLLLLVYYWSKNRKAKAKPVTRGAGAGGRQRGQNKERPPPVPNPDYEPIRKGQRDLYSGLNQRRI
Sequence of human CD3 (on human Pan-T cells or donor PBMC) (human) (P04234 22-171, chain 2 of 4, further chain): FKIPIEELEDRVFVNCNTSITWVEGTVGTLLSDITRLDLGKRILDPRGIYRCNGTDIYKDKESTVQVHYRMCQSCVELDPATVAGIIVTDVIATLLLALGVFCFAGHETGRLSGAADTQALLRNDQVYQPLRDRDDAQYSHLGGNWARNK
Sequence of human CD3 (on human Pan-T cells or donor PBMC) (human) (P09693 23-182, chain 3 of 4, further chain): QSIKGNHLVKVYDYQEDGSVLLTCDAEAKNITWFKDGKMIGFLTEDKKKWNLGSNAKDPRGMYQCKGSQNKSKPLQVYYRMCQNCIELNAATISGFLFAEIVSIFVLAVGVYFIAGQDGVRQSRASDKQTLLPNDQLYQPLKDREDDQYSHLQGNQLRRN
Sequence of human CD3 (on human Pan-T cells or donor PBMC) (human) (P20963 22-164, chain 4 of 4, further chain): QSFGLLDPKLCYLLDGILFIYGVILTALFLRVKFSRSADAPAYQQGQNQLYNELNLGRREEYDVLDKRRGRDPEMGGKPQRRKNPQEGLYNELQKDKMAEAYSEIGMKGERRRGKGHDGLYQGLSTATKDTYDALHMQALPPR
Sequence of CD3 on Jurkat wild-type cells (P07766 23-207, chain 1 of 3): as the sequence (P07766 23-207, chain 1 of 4) above
Sequence of CD3 on Jurkat wild-type cells (P04234 22-171, chain 2 of 3, further chain): as the sequence (P04234 22-171, chain 2 of 4, further chain) above
Sequence of CD3 on Jurkat wild-type cells (P09693 23-182, chain 3 of 3, further chain): as the sequence (P09693 23-182, chain 3 of 4, further chain) above
Sequence of human CD3 (on the surface of Jurkat wild-type cells and of human Pan T cells) (human) (P07766 23-207, chain 1 of 4): as the sequence (P07766 23-207, chain 1 of 4) above
Sequence of human CD3 (on the surface of Jurkat wild-type cells and of human Pan T cells) (human) (P09693 23-182, chain 2 of 4, further chain): as the sequence (P09693 23-182, chain 3 of 4, further chain) above
Sequence of human CD3 (on the surface of Jurkat wild-type cells and of human Pan T cells) (human) (P04234 22-171, chain 3 of 4, further chain): as the sequence (P04234 22-171, chain 2 of 4, further chain) above
Sequence of human CD3 (on the surface of Jurkat wild-type cells and of human Pan T cells) (human) (P20963 22-164, chain 4 of 4, further chain): as the sequence (P20963 22-164, chain 4 of 4, further chain) above
Sequence of human CD3 (TCR/CD3 complex on the cell surface) (human) (P07766 23-207, chain 1 of 4): as the sequence (P07766 23-207, chain 1 of 4) above
Sequence of human CD3 (TCR/CD3 complex on the cell surface) (human) (P09693 23-182, chain 2 of 4, further chain): as the sequence (P09693 23-182, chain 3 of 4, further chain) above
Sequence of human CD3 (TCR/CD3 complex on the cell surface) (human) (P04234 22-171, chain 3 of 4, further chain): as the sequence (P04234 22-171, chain 2 of 4, further chain) above
Sequence of human CD3 (TCR/CD3 complex on the cell surface) (human) (P20963 22-164, chain 4 of 4, further chain): as the sequence (P20963 22-164, chain 4 of 4, further chain) above

In the case of Gemtuzumab (antibody), the Cytokine Release Assay (IFNγ), Donor 0, gMFI max [1] is reported as 5340 gMFI, the Cytokine Release Assay (IFNγ), Donor 1, gMFI max [1] is reported as 4630 gMFI and the Cytokine Release Assay (IFNγ), Donor 2, gMFI max [1] is reported as 3580 gMFI. For the same substance, the Cytokine Release Assay (IFNγ), Donor 3, gMFI max [1] was 4480 gMFI.

In the case of Isotype Control (antibody), the gMFI [2] is reported as 1710 gMFI, the gMFI [3] is reported as 4370 gMFI and the gMFI (RT3-T3.5 (TCR-KO) cells [4]) is reported as 1820 gMFI.

Substance OKT3 (antibody) has a Jurkat WT/KO (Fold) [5] of 11.1 fold, a gMFI [6] of 300000 gMFI and a flow cytometry signal (CD33 on KILR-HL60 cells [7]) of 14800. It also gave a gMFI [8] of 4900 gMFI, a gMFI [9] of 54000 gMFI and a flow cytometry signal [10] of 82100. The flow cytometry signal [11] was 5180, the flow cytometry signal [12] was 35800 and the Jurkat WT/KO (Fold) [13] was 11 fold. It also gave a gMFI [14] of 72300 gMFI, a % Positive [15] of 99.6% and a gMFI [15] of 603000 gMFI. The gMFI [16] was 4070 gMFI, the gMFI [17] was 45200 gMFI and the gMFI (RT3-T3.5 (TCR-KO) cells [18]) was 4220 gMFI. For the same substance, the % Positive [19] was 99.9%, the gMFI [19] was 394000 gMFI and the flow cytometry signal [20] was 3680. It also gave a flow cytometry signal (CD33 on KILR-HL60 cells [21]) of 11600.

SP34 (antibody) showed a gMFI [6] of 333000 gMFI, a gMFI [14] of 114000 gMFI and a gMFI (RT3-T3.5 (TCR-KO) cells [18]) of 7160 gMFI.

Substance UCHT1 (antibody) has a gMFI [6] of 359000 gMFI, a gMFI [14] of 102000 gMFI and a gMFI (RT3-T3.5 (TCR-KO) cells [18]) of 5410 gMFI.

Substance hIgG1 (antibody) has a Jurkat WT/KO (Fold) [5] of 0.9 fold, a flow cytometry signal (CD33 on KILR-HL60 cells [7]) of 34300 and a gMFI [8] of 2020 gMFI. For the same substance, the gMFI [9] was 1770 gMFI, the flow cytometry signal [10] was 2700 and the flow cytometry signal [11] was 2830. For the same substance, the flow cytometry signal [12] was 2390, the Jurkat WT/KO (Fold) [13] was 0.9 fold and the % Positive [15] was 0.8%. It also gave a gMFI [15] of 1860 gMFI, a gMFI [16] of 1860 gMFI and a gMFI [17] of 1740 gMFI. For the same substance, the % Positive [19] was 0.8%, the gMFI [19] was 1780 gMFI and the flow cytometry signal [20] was 2620. It also gave a flow cytometry signal (CD33 on KILR-HL60 cells [21]) of 30200.
